Reference: patent publication US20230137032A1 (GlaxoSmithKline, published 2023)

Assays:
[1] = biological target: T1, human BCMA expressed on cells (human, UniProt Q02223 1-184); assay: FACS on H929 multiple myeloma cells, PE anti-mouse IgG
T1 construct: whole, on cells; also called human BCMA HEK293; ARH77-hBCMA 10B5 BCMA expressing transfectant cells
T1 sequence (looked up): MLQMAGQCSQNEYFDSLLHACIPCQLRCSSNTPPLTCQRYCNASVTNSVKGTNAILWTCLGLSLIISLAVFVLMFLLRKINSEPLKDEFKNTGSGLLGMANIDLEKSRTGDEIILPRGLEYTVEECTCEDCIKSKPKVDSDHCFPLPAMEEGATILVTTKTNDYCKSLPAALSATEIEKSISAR
Experimental: (§1) Cells were incubated for 20 mins at room temperature (RT) and then washed with FACS buffer (PBS+0.5% BSA+0.1% sodium azide) to remove unbound antibody. Cells were incubated with a secondary PE labelled anti-mouse IgG antibody for 15 minutes at RT and then washed with FACS buffer to remove unbound antibody. Cells were analysed by FACS to detect antibody bound to the cells.

[2] = biological target: T1, human BCMA expressed on cells; assay: FACS on ARH77-hBCMA 10B5 transfectant cells, antibody 5 µg/mL, PE anti-mouse IgG
Experimental: as §1

[3] = biological target: T2, recombinant human BCMA, in house material (human, UniProt Q02223 4-53, limits assumed); assay: ProteOn SPR, antibody captured on Protein A, 25C
T2 construct: also called Human in house BCMA; In house human BCMA
Experimental: The initial screen of the new chimeric variants from the second batch of hybridomas was carried out on the ProteOn XPR36 (Biorad). The method was as follows; Protein A was immobilised on a GLM chip (Biorad, Cat No: 176-5012) by primary amine coupling, anti-BCMA variants were then captured on this surface and recombinant human BCMA (in house material) passed over at 256, 64, 16, 4, 1 nM with a 0 nM injection (i.e. buffer alone) used to double reference the binding curves, the buffer used is the HBS-EP buffer. Regeneration of the capture surface was carried out using 50 mM NaOH. The data was fitted to the 1:1 model using the analysis software inherent to the ProteOn XPR36. The run was carried out at 25° C.

[4] = biological target: T2, recombinant human BCMA, in house …; assay: ProteOn SPR run 2, antibody captured on Protein A, 25C
[5] = biological target: T3, recombinant cyno BCMA, in house material (cyno, UniProt A0A2K5UD97 4-52); assay: as above
T3 construct: also called Cyno in house BCMA
T3 sequence (A0A2K5UD97 entry or part of it): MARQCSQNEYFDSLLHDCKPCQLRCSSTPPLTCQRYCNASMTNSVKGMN

B1: murine S307118G03 (antibody, IgG2a, V domains shown)
VH: EVQLQQSGPELVKPGASVKISCKASGYTFTDYYMKWVKQSHGKSLEWIGEIYPNNGGITYNQKFKGKATLTVDKSSSTAYMELRSLTSEDSAVYYCANGYEFVYWGQGTLVTVSA
VL: DIQMTQTASSLSASLGDRVTISCSASQGISNYLNWYQQKPDGTVKLLIYYTSSLHSGVPSRFSGSGSGTDYSLTISNLEPEDIATYYCQQYSKLPWTFGGGTKLEIKR
notes: Murine hybridoma antibody; also called S307118G03 (murine parental mAb)
B1: binds [1].

B2: murine S332126E04 (antibody, V domains shown)
VH: QVQLQQPGAELVKPGASVKLSCKASGYTFTNYWMHWVKQRPGQGLEWIGIIHPNSGSTNYNEKFKSKATLTVDKSSSTAYMQLSSLTSEDSAVYYCARGIYDYPFAYWGQGTLVTVSS
VL: DIVLTQSPASLAVSLGQRATISCRASESVSIHGTHLMHWYQQKPGQPPKLLIYAASNLESGVPARFSGSGSETDFTLNIHPVEEEDAATYFCQQSIEDPYTFGGGTKLEIKR
notes: Murine hybridoma antibody
B2: binds [2].

B3: S332121F02 chimeric antibody (antibody, human IgG1, kappa, V domains shown)
VH: EVQLQQSGPVLVKPGASVKMSCEASGYTFTDYYMNWVKQSHGKTLEWIGVINPYNGGTDYNQKFKGKATLTVDKSSSTAYMELNSLTSEDSAVYYCARSVYDYPFDYWGQGTLVTVSS
VL: DIVLTQSPASLAVSLGQRATISCRASESVSIHGTHLMHWYQQKPGQPPKLLIYAASNLESGVPARFSGSGSETDFTLNIHPVEEEDAATYFCQQSIEDPRTFGGGTKLEIKR
notes: Section 4.10 says that the samples are new chimeric constructs (human IgG1 kappa)
For B3, the Kd [3] was 17.3 nM.

B4: S322110D07 chimeric antibody (printed S332110D07 in Table 12) (antibody, human IgG1, kappa, V domains shown)
VH: EVQLQQSGPELVKPGTSVKIPCKTSGYIFTDYSIDWVKQSHGKSLEWIGDIDPNYGDPIYNHKFKGKATLTVDRSSSTAYMELRSLTSEDTAVYFCARRATGTDWFAFWGQGTLVTVSS
VL: DIQMTQSPASLSVSVGETVTITCRASENIYNNLAWYQQKQGKSPQLLVYAATILADGVPSRFSGSGSGTQYSLKINSLQSGDFGTYYCQHFWGTPLTFGAGTKLELKR
notes: Section 4.10 says that the samples are new chimeric constructs (human IgG1 kappa); also called chimeric S322110D07
B4 showed a Kd [3] of 12.1 nM.

B5: S307118G03 H5L1 (antibody, human IgG1, kappa, V domains shown)
VH: QVQLVQSGAEVKKPGSSVKVSCKASGYTFTDYYMKWVRQAPGQGLEWIGEIYPNNGGITYNQKFKGRATLTVDKSTSTAYMELSSLRSEDTAVYYCANGYEFDYWGQGTLVTVSS
VL: DIQMTQSPSSLSASVGDRVTITCSASQGISNYLNWYQQKPGKAPKLLIYYTSSLHSGVPSRFSGSGSGTDYTLTISSLQPEDFATYYCQQYSKLPWTFGQGTKLEIKR
notes: Humanised, human IgG1 kappa; also called S307118G03 humanised H5L1
B5: no binding (tested: up to 256 nM) [4]; no binding [5].
